The text below walks through data of article PMC3147155.

For the assay, the target named is I95E mutant of the PAS-A domain of the Bacillus subtilis protein KinA (Bacillus subtilis). The experiment in a line: AUC.

“I95E mutant of the PAS-A domain of the Bacillus subtilis protein KinA (domain or fragment)”: the log(Ka) amounted to 3.96, the log(k−) (log of koff) is -3.7 and the stoichiometry N is 2.
